In the supplement of paper PMC7877785:
± gives the uncertainty stated by the source.

Test: self-splicing fitness, log relative to wild type (ln ratio); higher = more splicing; Tetrahymena group I intron in knt gene, E. coli kanamycin selection, DiMSum; sequences stand for … in CUCUCU…GGAGGGAAAAGUUAUCAGGCAUGCACCUGGUAGCUAGUCUUUAAACCAAUAGAUUGCAUCGGUUUAAAAGGCAAGACCGUCAAAUUGCGGGAAAGGGGUCAACAGCCGUUCAGUACCAAGUCUCAGGGGAAACUUUGAGAUGGCCUUGCAAAGGGUAUGGUAAUAAGCUGACGGACAUGGUCCUAACCACGCAGCCAAGUCCUAAGUCAACAGAUCUUCUGUUGAUAUGGAUGCAGUUCACAGACUAAAUGUCGGUCGGGGAAGAUGUAUUCUUCUCAUAAGAUAUAGUCGGACCUCUCCUUAAUGGGAGCUAGCGGAUGAAGUGAUGCAACACUGGAGCCGCUGGGAACUAAUUUGUAUGCGAAAGUAUAUUGAUUAGUUUUGGAGUACUCGUGGUCG
How it was run: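 A randomised library covering all eight P1ex-region intron nucleotides was built with the intron in the knt kanamycin-resistance gene on pET-22b(+) and held in E. coli BL21(DE3). Cells were grown overnight at 37°C or 30°C on LB agar, with or without 25 μg/mL kanamycin, plus 100 μg/mL carbenicillin, 50 μM IPTG and 0.2% rhamnose, and pooled colonies were amplicon-sequenced on an Illumina HiSeq 2500. DiMSum fitness is the error-weighted combination of wild-type-normalised replicate fold changes, kanamycin versus none.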

Sequence	self-splicing fitness (ln) (30 °C)	self-splicing fitness (ln) (37 °C)
GGGCAGCAAUAUUACGCGUG	-0.165 ± 0.18	-1.87 ± 0.22
GGGCAGCAAUAUUACGGACG	-1.01 ± 0.056	0.591 ± 0.078
GGGCAGCAAUAUUACGGAGC	-2.15 ± 0.19	-1.12 ± 0.2
GGGCAGCAAUAUUACGGCAC	-1.17 ± 0.16	-0.328 ± 0.17
GGGCAGCAAUAUUACGGCGA	-0.562 ± 0.11	-0.245 ± 0.099
GGGCAGCAAUAUUACGGGGG	-3.44 ± 0.41	–
GGGCAGCAAUAUUACGGUGU	-2.02 ± 0.1	-1.21 ± 0.099
GGGCAGCAAUAUUACGUCGU	-0.45 ± 0.11	-0.185 ± 0.1
GGGCAGCAAUAUUACGUUAC	-1.84 ± 0.16	-0.903 ± 0.23
GGGGAGCAAUAUUACGACUG	-0.399 ± 0.45	–
GGGGAGCAAUAUUACGACUU	-1.2 ± 0.16	0.242 ± 0.22
GGGGAGCAAUAUUACGCUUU	-2.18 ± 0.27	–
GGGGAGCAAUAUUACGGAAA	–	-0.21 ± 0.41
GGGGAGCAAUAUUACGGAAU	–	-1.68 ± 0.33
GGGGAGCAAUAUUACGGAGU	-1.01 ± 0.41	–
GGGGAGCAAUAUUACGGUCG	-2.08 ± 0.28	-0.686 ± 0.35
GGGGAGCAAUAUUACGUAAA	-3.12 ± 0.36	-1.18 ± 0.3
GGGGAGCAAUAUUACGUGUC	-3.68 ± 0.33	-2.19 ± 0.18
GGGUAGCAAUAUUACGAAUC	0.0354 ± 0.3	-0.646 ± 0.36
GGGUAGCAAUAUUACGACAA	-0.573 ± 0.24	-0.263 ± 0.21
GGGUAGCAAUAUUACGAGAC	-3.48 ± 0.32	-1.9 ± 0.42
GGGUAGCAAUAUUACGAGAG	-3.56 ± 0.28	-2.26 ± 0.2
GGGUAGCAAUAUUACGAGUU	-0.948 ± 0.092	-1.38 ± 0.2
GGGUAGCAAUAUUACGAUCG	-0.211 ± 0.16	-0.869 ± 0.22
GGGUAGCAAUAUUACGCAAC	–	-2.43 ± 0.44
GGGUAGCAAUAUUACGCAAU	-1.79 ± 0.31	-1.47 ± 0.39
GGGUAGCAAUAUUACGCCCG	-1.88 ± 0.25	-1.32 ± 0.17

Sequence	self-splicing fitness (ln) (30 °C)	self-splicing fitness (ln) (37 °C)
GGGUAGCAAUAUUACGGACA	-0.93 ± 0.093	-0.223 ± 0.097
GGGUAGCAAUAUUACGGCAU	-0.0241 ± 0.076	-0.23 ± 0.096
GGGUAGCAAUAUUACGGGCU	-0.35 ± 0.081	0.282 ± 0.13
GGGUAGCAAUAUUACGGGUG	-4.22 ± 0.36	-2.68 ± 0.22
GGGUAGCAAUAUUACGGUAU	-2.11 ± 0.13	-0.598 ± 0.14
GGGUAGCAAUAUUACGGUGG	-2.55 ± 0.27	-1.61 ± 0.33
GGGUAGCAAUAUUACGUGCA	-0.359 ± 0.12	-0.483 ± 0.14
GGGUAGCAAUAUUACGUUCC	–	-2.09 ± 0.46
GGGUAGCAAUAUUACGUUGC	-3.63 ± 0.33	-0.334 ± 0.22
GGUAAGCAAUAUUACGAAAA	-2.86 ± 0.43	-0.969 ± 0.34
GGUAAGCAAUAUUACGAAGU	-1.93 ± 0.31	-1.78 ± 0.25
GGUAAGCAAUAUUACGACGC	0.697 ± 0.17	0.22 ± 0.21
GGUAAGCAAUAUUACGAUAU	-0.847 ± 0.15	0.242 ± 0.2
GGUAAGCAAUAUUACGAUGC	-0.616 ± 0.13	-0.401 ± 0.16
GGUAAGCAAUAUUACGAUGU	-1.2 ± 0.061	-0.805 ± 0.074
GGUAAGCAAUAUUACGCCAG	-4.42 ± 0.27	-2.13 ± 0.29
GGUAAGCAAUAUUACGCCUA	-0.917 ± 0.088	-0.737 ± 0.091
GGUAAGCAAUAUUACGCCUU	-1.49 ± 0.15	-0.81 ± 0.15
GGUAAGCAAUAUUACGCGCA	-0.159 ± 0.074	-0.401 ± 0.085
GGUAAGCAAUAUUACGCGGG	-3.28 ± 0.17	-2.02 ± 0.2
GGUAAGCAAUAUUACGCUAC	-2.3 ± 0.4	-2.23 ± 0.37
GGUAAGCAAUAUUACGCUCG	-0.274 ± 0.13	-0.892 ± 0.23
GGUAAGCAAUAUUACGGACU	-1.43 ± 0.17	-0.246 ± 0.2
GGUAAGCAAUAUUACGGAGG	–	-3.58 ± 0.42
GGUAAGCAAUAUUACGGAGU	-3.39 ± 0.22	-1.73 ± 0.18
GGUAAGCAAUAUUACGGCUA	0.109 ± 0.085	-0.0128 ± 0.11
GGUAAGCAAUAUUACGGGGU	–	-2.57 ± 0.25

Sequence	self-splicing fitness (ln) (30 °C)	self-splicing fitness (ln) (37 °C)
GGUAAGCAAUAUUACGGGUG	-3.24 ± 0.12	-1.85 ± 0.088
GGUAAGCAAUAUUACGUACC	-3.79 ± 0.44	–
GGUAAGCAAUAUUACGUCAC	-2.85 ± 0.24	-2.04 ± 0.23
GGUAAGCAAUAUUACGUCAG	-3.79 ± 0.34	-2.52 ± 0.39
GGUAAGCAAUAUUACGUGGC	-2.67 ± 0.15	-1.29 ± 0.16
GGUAAGCAAUAUUACGUGUG	-2.8 ± 0.16	-2.61 ± 0.16
GGUCAGCAAUAUUACGAAUC	-0.132 ± 0.14	0.365 ± 0.13
GGUCAGCAAUAUUACGACCC	-2.52 ± 0.27	-2.43 ± 0.41
GGUCAGCAAUAUUACGACUA	0.124 ± 0.092	0.866 ± 0.13
GGUCAGCAAUAUUACGAGCU	-0.647 ± 0.097	-0.497 ± 0.12
GGUCAGCAAUAUUACGAUAU	0.154 ± 0.071	0.391 ± 0.082
GGUCAGCAAUAUUACGCAAU	-0.0569 ± 0.099	0.16 ± 0.12
GGUCAGCAAUAUUACGCCUG	-2.9 ± 0.2	-0.721 ± 0.12
GGUCAGCAAUAUUACGCGCG	-0.298 ± 0.092	-0.546 ± 0.11
GGUCAGCAAUAUUACGCUGA	-3.21 ± 0.44	-1.95 ± 0.32
GGUCAGCAAUAUUACGGAAU	-0.593 ± 0.054	-0.0986 ± 0.069
GGUCAGCAAUAUUACGGUAA	-0.874 ± 0.071	-0.111 ± 0.069
GGUCAGCAAUAUUACGUACA	-0.423 ± 0.087	0.547 ± 0.14
GGUCAGCAAUAUUACGUCGU	0.302 ± 0.08	0.488 ± 0.082
GGUCAGCAAUAUUACGUGAA	-0.356 ± 0.086	0.381 ± 0.096
GGUCAGCAAUAUUACGUUGU	-1.51 ± 0.057	-0.47 ± 0.068
GGUGAGCAAUAUUACGAAUA	-2.09 ± 0.33	–
GGUGAGCAAUAUUACGAGGG	-3.16 ± 0.26	-2.43 ± 0.24
GGUGAGCAAUAUUACGCAGC	–	-1.93 ± 0.34
GGUGAGCAAUAUUACGCGUG	-1.22 ± 0.16	-1.52 ± 0.21
GGUGAGCAAUAUUACGGAAC	-1.27 ± 0.21	-0.837 ± 0.24
